# Laboratory results: patent US9205132B2, “Method of lowering mortality” (CORTHERA, INC., priority 2008, dated 2015)
# Tests used:
# [1] = test system: patients with acute heart failure (AHF); test: Post-discharge outcomes to Day 60 and Day 180 (death, rehospitalization), Pre-RELAX-AHF trial; conditions: for Days alive out of hospital: Day 60, mean ± SD
# Description: Patient-reported dyspnea was assessed using both a standard 7-point Likert Scale and a standard 100-mm Visual Analog Scale (VAS). Assessments were performed at baseline (VaS only), 6 h, 12 h, 24 h, 48 h after initiation of drug therapy and at Days 3, 4, 5 and 14. Questionnaires were administered in the local language, and investigators received training in the standardized administration of these evaluations. Daily, serial physician-reported assessments of heart failure signs and symptoms were, conducted including jugular venous distension, rales, edema, orthopnea, and dyspnea on exertion, in-hospital worsening heart failure was defined as a physician-determined assessment based on worsening symptoms or signs of heart failure and the need for the addition or institution of IV medications or mechanical support to treat AHF. Vital status and rehospitalization information was collected by telephone at Day 30, Day 60 and (vital status only at.) Day 180. When the last enrolled patient reached Day 60, telephone contact was made with all patients who were between Day 60 and Day 180 of follow-up to complete the study.
# 1.) Relief of dyspnea, assessed with two complementary Instruments; (a) Change in dyspnea by Likert scale, and (b) Change from baseline by Visual Analog Scale. 2.) In-hospital worsening heart failure (WMF) to Day 5. […] 4.) Length of initial hospital stay. 5.) Days alive and out-of-hospital to Day 60. 6.) Death due to cardiovascular causes or rehospitalization for heart failure or renal failure to Day 60. 7.) Mortality due to cardiovascular causes to Day 180. In addition, serial assessments of safety were performed including vital-signs, physical examinations, adverse events and clinical laboratory evaluations.
# Data are presented as means with standard deviations unless otherwise specified. Missing data were generally imputed by a last-observation-carried-forward approach. The worst observed dyspnea Likert or VAS score was carried forward from the time of death or worsening heart failure. The area under the curve representing the change in VAS score from baseline through Day 5 was computed by trapezoidal rule. For patients who died during the initial hospitalization, length of stay was imputed as the maximum observed plus 1 day (33 days). […] To control for regional variations in this relatively small study, region as a covariate or stratifying variable was prospectively pre-specified in the analyses of treatment effect. Rehospitalization and mortality rates through Day 180 were estimated using Kaplan-Meier (product-limit) methods, and groups compared using the Wald test of the treatment effect from Cox regression models, where time-to-event was censored at last patient contact for patients without the event of interest.
# [2] = test system: patients with acute heart failure (AHF); test: Safety endpoints (adverse events, blood pressure, renal impairment, clinical laboratory), Pre-RELAX-AHF trial; assay type: in vivo, human; conditions: for change from baseline in mean hematocrit at 48 hours: described as transient decrease
# Description: Study Procedures. The study was approved by the relevant ethics committees, institutional review hoards and regulatory authorities, and conducted under the International Conference on Harmonization Good Clinical Practice guidelines. All patients provided informed written consent prior to participation. […] The placebo used for the study was the same solution as the diluent used to prepare the 100 μg/kg/day dose. The randomization ratio was 3:2:2:2:2, respectively, Relaxin (Corthera, San Mateo, Calif.) was manufactured using recombinant techniques and was identical to the naturally-occurring peptide hormone. By protocol, the study drug infusion was to be terminated if the patient's SBP was reduced to <100 mmHg or by >40 mmHg compared to baseline in two successive measurements, 15 minutes apart. Investigators were not prohibited from utilizing any standard medication, thought necessary to treat patients enrolled in the study, including additional vasodilators, following a 4-hour washout period during which time IV vasodilators, IV pure inotropes and meals were withheld, hemodynamic, renal, and clinical responses to 48 hours of study drug infusion were assessed.
# Study Endpoints. […] 4.) Length of initial hospital stay.
substance,measurement,setting,value
Relaxin,"estimated hazard reduction, death due to cardiovascular causes or rehospitalization due to heart failure or renal failure at day 60","[1]; 30 mcg/kg/d IV 48 h, vs placebo",87%
same,Days alive out of hospital,[1]; 10 mcg/kg/d IV 48 h,47.0 ± 13.0 days
same,Days alive out of hospital,[1]; 30 mcg/kg/d IV 48 h,47.9 ± 10.1 days
same,Days alive out of hospital,[1]; 100 mcg/kg/d IV 48 h,48 ± 10.1 days
same,Days alive out of hospital,[1]; 250 mcg/kg/d IV 48 h,47.6 ± 12.0 days
same,All-cause death (KM %),"[1]; Day 180, 10 mcg/kg/d IV 48 h",5.0%
same,"mean number of days alive and out-of-hospital at Day 60, greater than placebo",[1]; relaxin-treated patients vs placebo,approximately 4 days
same,"Patients with any AE from Day 15 to Day 30, n (%)",[2]; 10 mcg/kg/d IV 48 h,4 (10.0%) n (%)
same,"Patients with any SAEs to Day 30, n (%)",[2]; 10 mcg/kg/d IV 48 h,7 (17.5%) n (%)
same,"Patients with any adverse events to Day 30, n (%)",[2]; 10 mcg/kg/d IV 48 h,32 (80.0%) n (%)
same,Protocol-specified study drug discontinuation due to blood pressure reduction,[2]; 10 mcg/kg/d IV 48 h,20.0%
same,Renal impairment: Patients with ≧0.3 mg/dL increase in creatinine at Day 5,[2]; 10 mcg/kg/d IV 48 h,3 (7.9%) n (%)
same,Renal impairment: Patients with ≧0.3 mg/dL increase in creatinine at Day 5 and Day 14,[2]; 10 mcg/kg/d IV 48 h,3 (7.5%) n (%)
same,Renal impairment: Patients with ≧25% increase in creatinine at Day 5,[2]; 10 mcg/kg/d IV 48 h,4 (10.0%) n (%)
same,"SAE to Day 30: Acute respiratory failure, n (%)",[2]; 10 mcg/kg/d IV 48 h,0 n (%)
same,"SAE to Day 30: Bronchitis, n (%)",[2]; 10 mcg/kg/d IV 48 h,0 n (%)
same,"SAE to Day 30: Cardiac failure, n (%)",[2]; 10 mcg/kg/d IV 48 h,2 (5.0%) n (%)
same,"SAE to Day 30: Cerebrovascular accident, n (%)",[2]; 10 mcg/kg/d IV 48 h,0 n (%)
same,"SAE to Day 30: Hypotension, n (%)",[2]; 10 mcg/kg/d IV 48 h,0 n (%)
same,"SAE to Day 30: Noncardiac chest pain, n (%)",[2]; 10 mcg/kg/d IV 48 h,2 (5.0%) n (%)
same,"SAE to Day 30: Pneumonia, n (%)",[2]; 10 mcg/kg/d IV 48 h,0 n (%)
same,"SAE to Day 30: Renal failure, n (%)",[2]; 10 mcg/kg/d IV 48 h,0 n (%)
same,"SAE to Day 30: Urinary retention, n (%)",[2]; 10 mcg/kg/d IV 48 h,0 n (%)
same,"SAE to Day 30: Urinary tract infection, n (%)",[2]; 10 mcg/kg/d IV 48 h,0 n (%)
same,"SAE to Day 30: Ventricular fibrillation, n (%)",[2]; 10 mcg/kg/d IV 48 h,1 (2.5%) n (%)
same,mean change in creatinine from baseline at Day 14,[2]; 10 mcg/kg/d IV 48 h,0.07 ± 0.24 mg/dL
same,patients requiring treatment of blood pressure reduction,[2]; 10 mcg/kg/d IV 48 h,None of the patients
same,proportion of patients at Day 14 with an increase in creatinine of 0.3 mg/dL or more,[2]; 10 mcg/kg/d IV 48 h,19.4%
same,change from baseline in mean hematocrit at 48 hours,[2]; 10 mcg/kg/d IV 48 h,0.57%
same,"Patients with any AE from Day 15 to Day 30, n (%)",[2]; 30 mcg/kg/d IV 48 h,5 (11.9%) n (%)
same,"Patients with any SAEs to Day 30, n (%)",[2]; 30 mcg/kg/d IV 48 h,7 (16.7%) n (%)
same,"Patients with any adverse events to Day 30, n (%)",[2]; 30 mcg/kg/d IV 48 h,25 (59.5%) n (%)
same,Protocol-specified study drug discontinuation due to blood pressure reduction,[2]; 30 mcg/kg/d IV 48 h,9.5%
same,Renal impairment: Patients with ≧0.3 mg/dL increase in creatinine at Day 5,[2]; 30 mcg/kg/d IV 48 h,7 (18.9%) n (%)
same,Renal impairment: Patients with ≧0.3 mg/dL increase in creatinine at Day 5 and Day 14,[2]; 30 mcg/kg/d IV 48 h,3 (7.3%) n (%)
same,Renal impairment: Patients with ≧25% increase in creatinine at Day 5,[2]; 30 mcg/kg/d IV 48 h,9 (22.0%) n (%)
same,"SAE to Day 30: Acute respiratory failure, n (%)",[2]; 30 mcg/kg/d IV 48 h,0 n (%)
same,"SAE to Day 30: Bronchitis, n (%)",[2]; 30 mcg/kg/d IV 48 h,1 (2.4%) n (%)
same,"SAE to Day 30: Cardiac failure, n (%)",[2]; 30 mcg/kg/d IV 48 h,1 (2.4%) n (%)
same,"SAE to Day 30: Cerebrovascular accident, n (%)",[2]; 30 mcg/kg/d IV 48 h,2 (4.8%) n (%)
same,"SAE to Day 30: Hypotension, n (%)",[2]; 30 mcg/kg/d IV 48 h,0 n (%)
same,"SAE to Day 30: Noncardiac chest pain, n (%)",[2]; 30 mcg/kg/d IV 48 h,0 n (%)
same,"SAE to Day 30: Pneumonia, n (%)",[2]; 30 mcg/kg/d IV 48 h,3 (7.1%) n (%)
same,"SAE to Day 30: Renal failure, n (%)",[2]; 30 mcg/kg/d IV 48 h,1 (2.4%) n (%)
same,"SAE to Day 30: Urinary retention, n (%)",[2]; 30 mcg/kg/d IV 48 h,0 n (%)
same,"SAE to Day 30: Urinary tract infection, n (%)",[2]; 30 mcg/kg/d IV 48 h,1 (2.4%) n (%)
same,"SAE to Day 30: Ventricular fibrillation, n (%)",[2]; 30 mcg/kg/d IV 48 h,0 n (%)
same,mean change in creatinine from baseline at Day 14,[2]; 30 mcg/kg/d IV 48 h,0.13 ± 0.49 mg/dL
same,mean decrease in SBP compared to placebo during infusion,[2]; 30 mcg/kg/d IV 48 h,3-4 mmHg
same,patients requiring treatment of blood pressure reduction,[2]; 30 mcg/kg/d IV 48 h,None of the patients
same,proportion of patients at Day 14 with an increase in creatinine of 0.3 mg/dL or more,[2]; 30 mcg/kg/d IV 48 h,26.3%
same,change from baseline in mean hematocrit at 48 hours,[2]; 30 mcg/kg/d IV 48 h,1.45%
same,"Patients with any AE from Day 15 to Day 30, n (%)",[2]; 100 mcg/kg/d IV 48 h,2 (5.3%) n (%)
same,"Patients with any SAEs to Day 30, n (%)",[2]; 100 mcg/kg/d IV 48 h,3 (7.9%) n (%)
same,"Patients with any adverse events to Day 30, n (%)",[2]; 100 mcg/kg/d IV 48 h,24 (63.2%) n (%)
